Assay: soluble on expression in E. coli; label from the status in PepcDB or PDB records

Row | Sequence | soluble on expression in E. coli
1 | LQMTQSPSFLSASVGDRVSITCRASQDIQKFLAWYQLTPGDAPKLLMYSASTLQSGVPSRFSGSGSGTEFTLTISGLQPEDFATYYCQHLKRYPYTFGQGTKLEISRTVAAPSVFIFPPSDEQLKSGTASVVCLLNNFYPREAKVQWKVDNALQSGNSQESVTEQDNKDSTYSLSSTLTLSKADYEKHKVYACEVTHQGLSSPVTKSFNRGEC | soluble
2 | MGSDKIHHHHHHMKRENLHQPFEISFSELAESLLKEHEHTFFELVYILSGTGIQWINNNMFPYHDGHLFMITPGDTHSFEIHTTTKFVDIKFNDIYIHSSVFGAENIQRLEFILQHANHQPGCILRNKVDKLLVKPMIEAIIREYINRNLYSKEIITQIINTIIIVVARNIAMFLPEQVDECSEDKSLDILQYIQANIYKTGKIRAKDISQHFGISENYLGRYIKKHTNETMQQYILNYKLKLVENRLLHSQMRICEIVEELGFTDESHLNKFFKKYRGCSPSNFRKNNLK | not soluble
3 | MDPAEVEFLAEKEMVKIIPNFSLDKIYLIGGDLGPFNPGLPVEVPVWLALNLKQRQKCRIVPPEWMDTDKLEDIREQERKLDTFTPIPNPYYMELTKLLLNHAADNIPKADEIRTLVKDIWDTRMAKLRLSADSFISQQEAHAQLDNLTLMEINTTRSFLLDSLNYMYKLRSNLQPGRSKDY | not soluble
4 | MGSDKIHHHHHHMSPKTALNLFSLLWQNYSARVPYARTYEQMITAAGGTVANDHIAFRSLRLLVDSPRGKVNLGINYLSQIAEALGYEPAGEYNFPQTHLYARHYRHPQQIEFDLPKLFISELIVDELPDNIIQLITQTVSTVADEFTSPLTYFSPAEGNDGVIAQQLQKFFTRPWMTPRRSVVEAVNQVTQYGAWVLLHGYAVNHFTGYVNRHQTPEYADIDDTARGLANLGVPMKAEIEGDVTWGLRQTATQAVKEMVTVIDDISGQEVEIPWTYAYYEIAQRYPLQVEPGKEKLFDGFLGNNAQQLFEMTRLVECDAAKIGK | not soluble
5 | MAHHHHHHMDPLLLGTSAGLERNCTVLFSHLTALCGTKPAGEPHNPLQVHLRVDDGHRDTALQHIKVLYDVAVRHNPRTSVTVVPLAPLEYYETPNRNTNSREGHKLPLFTASLMTPNCGFNPVYKGVAVGGTFDRLHGGHKLLLTTALLHATQVLRIGVTVSTMLTTKIHADLIEPFEVRCAAVTKFAHLLRPDLGLEVAGIADRAGGADSDPSLEALVVSPETVGALPSINTARLSVGLKPLECVLVPYVGVCDDEESRVSSTNIRKRLCELST | soluble
6 | MPCDFPGCGRIFSNRQYLNHHKKYQHIHQKSFSCPEPACGKSFNFKKHLKEHMKLHSDTRDYICEF | soluble
7 | MAHHHHHHMIPHICVNAANYSHTQFEECLTHMCDLSEELSAFKRTAVSLKRQATGDAETSKLALQYMEEALEKVLHVTQGVKEGNKTIGTAAAVKKSVIEAKIASDIADEEASKVERKLDKATRDAGNAEKNLQRILIYTARKACSSEGISSQDEEVKEAQCNVSTEIVYSCTRRPLKIKSDTLRKTYERLKSFTRTPNKTINEHLPKCHMWTELLEPAVASLTDMEKSASVARAYRNQVIKARGEAQQAAWTVGVTVQDVDGLDEVSEEDDFALAPVVLVAVLIVGAVLIDQHP | not soluble
8 | MSTEHLTPELLRLADSTPGFMPEDEGTALHEAAMQYLPPGGVGVEIGTYCGRSTIYLGAAAKARAARIVTIDHHHGSEEHQPGWEYHEPAFVDPHTGLLDTVGRFRHTMADSGLEDYVVGVLGRSSTVATFWRTPVHFVFIDGGHTSEAASADLEGWAPWVNVGGALVIHDVFPDPADGGRPPFEIYERALATGQFKETSVTGSLRVLERVGGQTGEPLA | not soluble
9 | MQTSPLLTQLMEALRCLPGVGPKSAQRMAFTLLQRDRSGGMRLAQALTRAMSEIGHCADCRTFTEQDVCNICSNPRRQENGQICVVESPADIYAIEQTGQFSGRYFVLMGHLSPLDGIGPDDIGLDRLEQRLASEKISELILATNPTVEGEATANYIAELCAEAGVEASRIAHGVPVGGELEMVDGTTLSHSLAGRHKIIF | not soluble
10 | MTSRPSSDQTWQPIDGRVALIAPASAIATDVLEATLRQLEVHGVDYHLGRHVEARYRYLAGTVEQRLEDLHNAFDMPDITAVWCLRGGYGCGQLLPGLDWGRLQAASPRPLIGFSDISVLLSAFHRHGLPAIHGPVATGLGLSPLSAPREQQERLASLASVSRLLAGIDHELPVQHLGGHKQRVEGALIGGNLTALACMAGTLGGLHAPAGSILVLEDVGEPYYRLERSLWQLLESIDARQLGAICLGSFTDCPRKEVAHSLERIFGEYAAAIEVPLYHHLPSGHGAQNRAWPYGKTAVLEGNRLRW | soluble
11 | MGSDKIHHHHHHMNLRRDALQILKETSRTFYIPISLLPPGLQEAVASAYLCMRAIDEIEDHPEIDNATKAKLLRSISLTLQAGVDGFAVEAFFTGFNGYENTLEEVTLRIREWLLLAPETIAPRIWDATAAMSDRMAYWSERNWKIYTESDLDRYTFGVAGAVGLLLSDLWTWYDGTQTNRTQAIGFGRGLQAVNILRNHTEDLRRGVDFFPEGWSAENMQEYARRNLALAEAYTKGLPTGPALDFCQIPLTLANGTLDALANGKEKLSRSDVFALIEQIISVNMKAS | not soluble
12 | MGSDKIHHHHHHLPRRYEDIYPSLPLLNSDGLEHMSAASLMSVRYFQAEPDRMPEDVFAEHHILLNLKAEPHRVQNTRDGEMRDFTFSKNDIIVTPAGMRSGWRWFAQSDVIVVTLLPDRVQRFAETELGLLLDPQQLGDLPLFSDADLCAAGVMLRDALEADDMSSAVMFEALSRVFLVKLLQRYGKRRPEDVALSSRFTSAHYNRVLAFIRANLERTITLDDLASEAGMSPSHFSRLFKDTVGTPPMQYVMAYRIEQSLAMMTDQGRALGDIALACGFADQAHFSRSFKQLMGATPRQHRSSLS | not soluble
13 | MGSDKIHHHHHHMPLQQESARQERKPVILMSMGQQDRNGHAYQVMTHKYMQPVVDISDCIPLLIPTCFGVADIEQYLDMADGVYLSGAASNIDPSLYGQENLTPEKKQDLARDLVDIALIKGAVKRGLPILGICRGMQEMNIAFGGDLYQKVHDEDHLNDHREDPDTPPDVQYGASHSISMVKGSWLHKLLGDTIEVNSLHGQGIKTLGKGLEALALAEDGLVEALHAPYLPQFTLGVQWHPEWKALENPDSIKIFKAFGEACRRRAGSALDLRIDKAS | not soluble
14 | MGSDKIHHHHHHMETVNILGTGSAMVTKCYNTCFTLSNGDEHFLVDTGGGNTILTNLEKLHIGIDKIHNVFISHRHNDHITGIIWIIRAVAQRIINGKYDGDLKIYCCKENIEVINTICKLLLEKKFTKYMGNRIVFSEIYDGCRLKVLDWDIEFFDIKSTKQLQFGFTTVLKSGKKLTFLGDEPYRENLYEYANNSDYIFHEAFCLYSEKDIFKPYEKHHATVKDACENADKLSVKNIILYHTEDKNIEKRKELYIGEGSKFFKGNIIVPDDLETIELK | not soluble
15 | MSLTLADKVVYEEEIQKSRFIAKAAPVASEEEALAFLAENREPEATHNGHAYKIGLLYRFSDDGEPSGTAGRPILHAIEAQGLDRVAVLVVRYFGGVKLGAGGLVRAYGGVAAEALRRAPKVPLVERVGLAFLVPFAEVGRVYALLEARALKAEETYTPEGVRFALLLPKPEREGFLRALLDATRGQVALE | soluble
16 | MGAGREVSVSLDGVRDKNLMQLKILNTVLFPVRYNDKYYADAIAAGEFTKLAYYNDICVGAIACRLEKKESGAMRVYIMTLGVLAPYRGIGIGSNLLNHVLDMCSKQNMCEIYLHVQTNNEDAIKFYKKFGFEITDTIQNYYINIEPRDCYVVSKSFAQSEANK | soluble
17 | GPGSMSARPSVSVYSASSDSVVGTCPLPAVFTAPIRSDIVKFVHTNMAKNSRQAYAVNRLSGMNHSAHSWGTGRAVARIPRISGGGTSTSGAGAFGNMCRGGRMFAPTKIFRRWHRKINLHQKRFAVVSALAASSVPSLVMSRGHQIGNVPEVPLVVEDSIQGYEKTKEAMAFLKAIAAIDDVNRVNDSREIRAGRGKMRNRRYVARRGPMLVMPNNKGTRAFRNIFGLDLANVSALNLLHLAPGGHVGRFVIWTQSAFEQLDKIFGTFTEASAVKKGFTLPAPMLTNTDVTRIMQSEEVRRVLKPKKLQAKKASRFQTPTNGMKNRRLRLRLNPYVKRETAAAKGMRNVANRDARRKAKLARVTKAKKAATKSAKQ | not soluble
